Assay results taken from patent publication US20260139057A1 (University of California, published 2026).
Residue numbers refer to the chain shown, from its start. Blank lines part the entries; values can stand above or below the binder they belong to.

Columns and labels:
[1] = molecular target: T1, recombinant human integrin αvβ8 ectodomain (human, UniProt P06756 31-992; P26012 43-681); assay: cell-based or functional assay
[2] = molecular target: T1, recombinant human integrin αvβ8 …; assay: cell-based or functional assay; remark: listed apart in the source
[3] = molecular target: T1, recombinant human integrin αvβ8 …; assay: cell-based or functional assay; remark: listed apart in the source
[4] = molecular target: T1, recombinant human integrin αvβ8 …; assay: KinExA; antibody format and antigen form not stated
[5] = molecular target: T2, human integrin αvβ8 on transfected cells (CHO cells stably transfected; HEK 293 cells stably expressing αvβ8) (human, UniProt P06756 31-1048; P26012 43-769); assay: flow cytometry on unfixed CHO cells expressing human αvβ8, antibody titrated, hyperbolic least-squares fit (m3 = KD); curves on D00025 [Cont.]
T2 construct: whole, on cells; also called CHO αvβ8 cells; αvβ8 expressing CHO cells
Experimental: (§1) FIG. 17: Characterization of cell surface binding of humanized affinity optimized anti-αvβ8 antibodies. The cell surface binding affinities of H4C8, H4G9, H4C10, H4G8 compared to HuC6D4F12 expressed as IgG4 (S228P to prevent arm exchange, R409K and L445P to reduce aggregation and to promote stability). […] Cell surface affinity was determined using the least-squares fit model based on the hyperbolic equation y=m1+m2*m0/(m3+m0), where y=MFI at different avb8 concentrations; m0=αvβ8 concentration; m1=MFI with no αvβ8; m2=MFI at saturation; and m3=KD.
(§2) FIG. 18: Binding characteristics of H4C8 of formalin fixed αvβ8 compared to HuC6D4F12 or ADWA11 2.4 (from Pat no. US2020/0079855 A1). CHO αvβ8 expressing cells were fixed in 2% buffered formalin in PBS for 15 min at RT and then stained at the indicated concentrations as described in FIG. 17. The binding affinities to unfixed or formalin fixed cells is shown. Cell surface affinity was determined using the least-squares fit model based on the hyperbolic equation y=m1+m2*m0/(m3+m0), where y=MFI at different αvβ8 concentrations; m0=αvβ8 concentration; m1=MFI with no αvβ8; m2=MFI at saturation; and m3=KD.

[6] = molecular target: T2, human integrin αvβ8 on transfected …; assay: flow cytometry on CHO cells expressing human αvβ8 fixed in 2% buffered formalin for 15 min, antibody titrated, hyperbolic least-squares fit (m3 = KD); curves on D00025 [Cont.]
Experimental: as §1, §2

[7] = molecular target: T1, recombinant human integrin αvβ8 …; assay: cell-based or functional assay; remark: listed apart in the source
[8] = molecular target: integrin αvβ6 ectodomain (immobilized) (human, UniProt P06756 31-992; P18564 22-709); assay: cell-based or functional assay
[9] = molecular target: T3, integrin αvβ1 ectodomain (immobilized) (Homo sapiens (Human), UniProt P06756 31-992; P05556 21-728); assay: binding to immobilized integrin ectodomains blocked with BSA
T3 construct: R&D Systems; copies: 1 + 1

[10] = molecular target: T4, integrin αvβ5 ectodomain (immobilized) (Homo sapiens (Human), UniProt P06756 31-992; P18084 24-719); assay: as above
T4 construct: R&D Systems; copies: 1 + 1

[11] = molecular target: T5, integrin αvβ3 on HEK 293 cells stably expressing αvβ3 (Homo sapiens (Human), UniProt P06756 31-1048; P05106 27-788); assay: flow cytometry on HEK 293 cells stably expressing αvβ3
T5 construct: also called αvβ3 expressing 293 cells
Excerpt: A) Binding of anti-β3 (AP3) relative to F12 IgG4, H4C8 RGD1 IgG4,H4C8 RGD3 IgG4, H3C8 RGD3 with VL Fr4 V108/L109 (mouse) IgG4, H4C8 RGD3 IgG4, H3C8 RGD3 VL Fr4 K108/V109 (human) IgG4, H4C8 RGD1 VH Fr3 E72, H4C8 RGD3 VH Fr3 E72 IgG4. HEK 293 cells stably expressing αvβ3 were stained and the percentage of relative binding to the mean fluorescence intensity of AP3 is shown, B) Expi293 cells transiently expressing αvβ6 were stained and the percentage of relative binding to the mean fluorescence intensity of 3G9 is shown, C) HEK 293 cells stably expressing αvβ8 were stained and the percentage of relative binding to the mean fluorescence intensity of HuF12 is shown. All primary antibodies were used at 2.5 ug/ml. […] Binding or 3G9 is shown and percent binding of antibodies relative to 3G9 binding to αvβ6 is shown. Dotted line indicate binding observed with each positive control antibody,
RGD ligands bind promiscuously to a number of integrins. A highly desirable quality in RGD-mimetics is to retain specificity for some but not all integrins. One highly desirable property would be a dual inhibitor to both the αvβ8- and αvβ6-integrins, without cross-reactivity to other integrins. This property would facilitate specific targeting of integrin-mediated TGF-β activation without the liability of side-effects mediated by broadly blocking other integrins. We first measured binding to αvβ3 expressing 293 cells. Binding of anti-β3 (AP3) relative to F12 IgG4, H4C8 RGD1 IgG4,H4C8 RGD3 IgG4, H3C8 RGD3 with VL Fr4 V108/L109 (mouse) IgG4, H4C8 RGD3 IgG4, H3C8 RGD3 VI Fr4 K108/V109 (human) IgG4, H4C8 RGD1 Vh Fr3 E72, H4C8 RGD3 Vh Fr3 E72 IgG4. […] Expi293 cells transiently expressing αvβ6 were stained and the percentage of relative binding to the mean fluorescence intensity of anti-β6 (3G9) determined.

[12] = molecular target: T3, integrin αvβ1 ectodomain (immobilized); assay: binding to immobilized ectodomains
[13] = molecular target: T4, integrin αvβ5 ectodomain (immobilized); assay: binding to immobilized ectodomains

T5 sequence (P06756 31-1048 limits assumed, chain 1 of 2): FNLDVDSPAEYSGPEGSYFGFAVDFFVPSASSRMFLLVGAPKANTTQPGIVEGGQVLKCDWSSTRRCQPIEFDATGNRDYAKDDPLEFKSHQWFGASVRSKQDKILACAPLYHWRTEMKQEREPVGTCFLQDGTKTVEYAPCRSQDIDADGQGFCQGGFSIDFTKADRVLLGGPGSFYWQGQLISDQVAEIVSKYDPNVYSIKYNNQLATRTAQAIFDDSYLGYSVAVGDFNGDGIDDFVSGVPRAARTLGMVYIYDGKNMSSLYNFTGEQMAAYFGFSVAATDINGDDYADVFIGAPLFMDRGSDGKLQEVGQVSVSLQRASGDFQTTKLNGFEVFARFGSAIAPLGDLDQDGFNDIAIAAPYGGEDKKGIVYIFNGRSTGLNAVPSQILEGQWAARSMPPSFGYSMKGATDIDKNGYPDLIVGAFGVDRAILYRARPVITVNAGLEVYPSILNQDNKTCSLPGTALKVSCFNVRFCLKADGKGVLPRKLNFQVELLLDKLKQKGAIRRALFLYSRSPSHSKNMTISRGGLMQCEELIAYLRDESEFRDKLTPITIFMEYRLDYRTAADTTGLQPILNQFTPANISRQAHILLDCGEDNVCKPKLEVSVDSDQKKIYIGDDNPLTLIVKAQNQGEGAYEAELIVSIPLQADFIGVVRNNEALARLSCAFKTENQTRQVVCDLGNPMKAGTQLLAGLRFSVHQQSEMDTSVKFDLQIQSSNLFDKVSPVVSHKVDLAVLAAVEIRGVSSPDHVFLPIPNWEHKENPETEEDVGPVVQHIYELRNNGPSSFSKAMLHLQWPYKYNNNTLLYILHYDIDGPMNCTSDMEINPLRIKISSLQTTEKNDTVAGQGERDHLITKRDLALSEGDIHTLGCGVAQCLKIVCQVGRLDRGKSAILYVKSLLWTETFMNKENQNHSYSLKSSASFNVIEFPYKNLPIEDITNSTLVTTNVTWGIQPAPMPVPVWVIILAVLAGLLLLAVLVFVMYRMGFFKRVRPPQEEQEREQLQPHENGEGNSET
T5 sequence (P05106 27-788 limits assumed, chain 2 of 2): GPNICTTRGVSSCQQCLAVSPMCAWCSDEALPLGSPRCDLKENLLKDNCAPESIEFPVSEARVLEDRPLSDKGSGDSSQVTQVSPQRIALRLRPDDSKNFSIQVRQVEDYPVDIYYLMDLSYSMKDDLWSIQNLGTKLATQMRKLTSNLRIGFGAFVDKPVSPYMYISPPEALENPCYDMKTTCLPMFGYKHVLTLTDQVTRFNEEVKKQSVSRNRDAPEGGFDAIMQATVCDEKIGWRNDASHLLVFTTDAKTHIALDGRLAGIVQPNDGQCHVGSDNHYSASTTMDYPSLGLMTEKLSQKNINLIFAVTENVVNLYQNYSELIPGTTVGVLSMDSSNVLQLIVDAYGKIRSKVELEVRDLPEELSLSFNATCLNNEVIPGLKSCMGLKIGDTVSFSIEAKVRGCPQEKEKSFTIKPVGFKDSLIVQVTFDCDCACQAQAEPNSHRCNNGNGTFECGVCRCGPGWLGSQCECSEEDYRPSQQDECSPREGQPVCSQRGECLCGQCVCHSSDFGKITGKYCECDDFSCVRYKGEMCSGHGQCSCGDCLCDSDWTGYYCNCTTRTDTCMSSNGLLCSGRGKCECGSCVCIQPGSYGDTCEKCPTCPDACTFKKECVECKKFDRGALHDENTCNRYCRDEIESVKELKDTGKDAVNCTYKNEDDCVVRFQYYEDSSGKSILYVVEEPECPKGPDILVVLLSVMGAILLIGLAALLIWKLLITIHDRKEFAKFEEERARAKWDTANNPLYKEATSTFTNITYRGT
Sequence of integrin αvβ6 ectodomain (immobilized) (P06756 31-992, chain 1 of 2): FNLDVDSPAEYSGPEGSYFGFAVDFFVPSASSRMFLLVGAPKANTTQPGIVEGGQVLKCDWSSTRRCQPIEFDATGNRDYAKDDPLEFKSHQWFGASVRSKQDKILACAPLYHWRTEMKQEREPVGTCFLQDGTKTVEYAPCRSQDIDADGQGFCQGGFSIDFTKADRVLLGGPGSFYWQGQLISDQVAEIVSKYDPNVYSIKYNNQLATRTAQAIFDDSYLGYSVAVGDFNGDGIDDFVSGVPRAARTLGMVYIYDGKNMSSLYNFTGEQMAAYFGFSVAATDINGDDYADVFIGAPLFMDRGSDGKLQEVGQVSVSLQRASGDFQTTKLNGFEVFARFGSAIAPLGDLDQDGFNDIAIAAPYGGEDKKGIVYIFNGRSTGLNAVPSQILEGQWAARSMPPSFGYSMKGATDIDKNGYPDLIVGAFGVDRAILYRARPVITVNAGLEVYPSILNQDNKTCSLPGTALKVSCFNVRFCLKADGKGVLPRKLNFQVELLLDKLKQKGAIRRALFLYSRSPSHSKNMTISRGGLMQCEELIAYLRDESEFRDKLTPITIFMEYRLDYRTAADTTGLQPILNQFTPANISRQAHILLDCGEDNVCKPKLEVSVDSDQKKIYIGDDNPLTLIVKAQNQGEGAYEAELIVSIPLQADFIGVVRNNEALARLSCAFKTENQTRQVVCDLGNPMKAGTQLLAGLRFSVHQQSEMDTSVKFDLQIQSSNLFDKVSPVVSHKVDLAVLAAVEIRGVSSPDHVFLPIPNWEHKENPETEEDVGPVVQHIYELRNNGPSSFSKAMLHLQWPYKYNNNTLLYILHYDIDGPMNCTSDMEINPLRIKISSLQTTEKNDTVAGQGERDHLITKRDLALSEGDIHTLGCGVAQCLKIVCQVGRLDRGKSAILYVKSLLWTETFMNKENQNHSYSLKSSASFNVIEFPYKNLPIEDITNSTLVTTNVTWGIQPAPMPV
Sequence of integrin αvβ6 ectodomain (immobilized) (P18564 22-709, chain 2 of 2): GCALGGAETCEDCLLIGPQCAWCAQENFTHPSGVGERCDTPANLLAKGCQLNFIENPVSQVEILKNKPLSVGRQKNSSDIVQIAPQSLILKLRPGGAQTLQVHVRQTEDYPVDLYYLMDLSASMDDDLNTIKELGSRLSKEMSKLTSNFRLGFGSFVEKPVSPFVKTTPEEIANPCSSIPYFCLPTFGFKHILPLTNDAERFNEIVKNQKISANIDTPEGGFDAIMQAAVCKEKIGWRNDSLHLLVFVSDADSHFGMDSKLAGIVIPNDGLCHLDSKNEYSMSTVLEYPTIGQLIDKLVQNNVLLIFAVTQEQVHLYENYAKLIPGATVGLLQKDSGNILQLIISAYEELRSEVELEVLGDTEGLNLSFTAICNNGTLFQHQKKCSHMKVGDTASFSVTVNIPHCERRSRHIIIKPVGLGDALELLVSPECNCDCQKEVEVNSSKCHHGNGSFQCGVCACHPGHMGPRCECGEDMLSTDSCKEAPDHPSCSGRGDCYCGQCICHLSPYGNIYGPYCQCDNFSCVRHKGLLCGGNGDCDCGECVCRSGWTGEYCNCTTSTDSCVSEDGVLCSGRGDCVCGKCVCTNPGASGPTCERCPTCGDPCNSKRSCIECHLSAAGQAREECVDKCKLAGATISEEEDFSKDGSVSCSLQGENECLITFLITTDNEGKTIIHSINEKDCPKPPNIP
T3 sequence (P06756 31-992 limits assumed, chain 1 of 2): as the sequence (P06756 31-992, chain 1 of 2) above
T3 sequence (P05556 21-728 limits assumed, chain 2 of 2): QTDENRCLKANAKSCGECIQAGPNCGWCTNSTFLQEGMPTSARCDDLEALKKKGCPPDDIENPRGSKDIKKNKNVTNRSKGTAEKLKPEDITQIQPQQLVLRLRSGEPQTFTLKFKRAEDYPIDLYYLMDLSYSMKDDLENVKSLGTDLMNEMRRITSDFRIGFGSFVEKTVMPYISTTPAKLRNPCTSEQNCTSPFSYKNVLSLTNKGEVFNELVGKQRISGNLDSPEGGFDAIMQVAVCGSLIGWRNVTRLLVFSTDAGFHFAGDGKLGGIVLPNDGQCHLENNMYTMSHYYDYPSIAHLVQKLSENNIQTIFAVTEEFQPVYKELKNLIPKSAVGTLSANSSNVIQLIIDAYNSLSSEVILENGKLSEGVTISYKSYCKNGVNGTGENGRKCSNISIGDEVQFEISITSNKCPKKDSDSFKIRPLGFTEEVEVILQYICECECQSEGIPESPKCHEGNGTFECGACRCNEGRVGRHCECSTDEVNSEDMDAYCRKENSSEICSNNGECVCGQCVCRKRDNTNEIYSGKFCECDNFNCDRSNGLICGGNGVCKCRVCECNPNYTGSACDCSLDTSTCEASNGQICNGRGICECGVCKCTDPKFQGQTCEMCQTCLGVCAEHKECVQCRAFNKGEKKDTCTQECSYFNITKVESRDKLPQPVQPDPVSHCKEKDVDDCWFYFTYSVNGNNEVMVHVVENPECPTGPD
T1 sequence (P06756 31-992 limits assumed, chain 1 of 2): as the sequence (P06756 31-992, chain 1 of 2) above
T1 sequence (P26012 43-681 limits assumed, chain 2 of 2): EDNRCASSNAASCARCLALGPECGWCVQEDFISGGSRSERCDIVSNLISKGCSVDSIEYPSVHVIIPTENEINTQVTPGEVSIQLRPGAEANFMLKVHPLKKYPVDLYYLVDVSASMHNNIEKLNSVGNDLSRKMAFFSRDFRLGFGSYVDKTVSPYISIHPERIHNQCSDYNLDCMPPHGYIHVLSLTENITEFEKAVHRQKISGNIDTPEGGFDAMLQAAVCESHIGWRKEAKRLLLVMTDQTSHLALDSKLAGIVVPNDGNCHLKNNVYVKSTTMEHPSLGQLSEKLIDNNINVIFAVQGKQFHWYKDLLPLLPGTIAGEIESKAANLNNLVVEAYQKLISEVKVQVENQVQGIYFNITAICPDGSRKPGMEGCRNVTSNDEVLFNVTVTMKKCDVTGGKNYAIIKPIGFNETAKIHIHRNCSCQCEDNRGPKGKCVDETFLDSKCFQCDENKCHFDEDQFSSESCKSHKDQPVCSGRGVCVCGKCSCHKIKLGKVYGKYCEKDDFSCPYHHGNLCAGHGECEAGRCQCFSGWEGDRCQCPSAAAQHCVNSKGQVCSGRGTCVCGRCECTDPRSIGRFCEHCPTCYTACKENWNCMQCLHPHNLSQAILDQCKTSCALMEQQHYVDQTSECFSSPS

EC50 of inhibition of αvβ8-mediated TGF-β activation [1]: 0.23 µM | IC50 of the inhibition of TGF-β activation (TMLC GARP/TGF-β1 reporter cells on αvβ8-coated wells) [2]: 3.1 µg/mL | ED50 of the inhibition of αvβ8-mediated TGF-β activation (immobilized αvβ8, TMLC GARP/L-TGF-β reporter cells) [3]: 0.23 µg/mL
B1: HuC6D4 IgG2a (antibody, V domains shown)
VH: QIQLVQSGAEVKKPGASVKISCKASGYTFTDYSMHWVRQAPGQGLEWVARINTETGEPTFADDFRGRFTVTLDTSTSTAYLEIRSLRSDDTAVYFCAIFYYGRDTWGQGTTLTVSS
VL: EIVMTQSPATLSVSPGERVTMSCKSSQSLLNSRSRKNYLAWYQQKPGQAPRLLIYWASTRESGVPARFSGSGSGTEFTLTISSVQSEDFAVYYCKQSYNLLSFGQGTVLEIKR

ED50 of the inhibition of αvβ8-mediated TGF-β activation (immobilized human αvβ8, TMLC GARP/L-TGF-β reporter cells) [7]: 3.3 µg/mL | ED50 of the inhibition of αvβ6-mediated TGF-β activation (immobilized human αvβ6, TMLC GARP/L-TGF-β reporter cells) [8]: 1.54 µg/mL | binding result [9]: no binding | binding result [10]: no binding
B4: HuC6D4 RGD3, mouse IgG2a (antibody, V domains shown)
VH: B1 VH
VL: EIVMTQSPATLSVSPGERVTMSCKSSQSLLGRGDLGRLKKNALAWYQQKPGQAPRLLIYWASTRESGVPARFSGSGSGTEFTLTISSVQSEDFAVYYCKQSYNLLSFGQGTVLEIKR
notes: Mouse IgG2a

IC50 of the inhibition of TGF-β activation (TMLC GARP/TGF-β1 reporter cells on αvβ8-coated wells) [2]: 0.337 µg/mL
B5: huF12 VH with huC6D4 VL, murine IgG2a (antibody, V domains shown)
VH: B1 VH with D31K
VL: B1 VL

EC50 of inhibition of αvβ8-mediated TGF-β activation [1]: 0.3 µM | ED50 of the inhibition of αvβ8-mediated TGF-β activation (immobilized αvβ8, TMLC GARP/L-TGF-β reporter cells) [3]: 0.03 µg/mL
B6: H4C8m (H4C8 with non-humanized, murine VL Fr4), human IgG4 (antibody, V domains shown)
VH: QVQLVQSGAEVKKPGASVKVSCKVSGYTLTRQSMHWVRQAPGKGLEWMGRINTETGEPTYAQKFQGRVTMTQDTSTDTAYMELSSLRSEDTAVYFCAIFYYGRDTWGQGTTVTVSS
VL: B1 VL with M21L, K24R, N31H, S62T, V84L

IC50 of the inhibition of TGF-β activation (TMLC GARP/TGF-β1 reporter cells on αvβ8-coated wells) [2]: 1.15 µg/mL
B7: huC6D4 VH with huF12 VL, murine IgG2a (antibody, V domains shown)
VH: B1 VH
VL: B1 VL with N31H

Kd [4]: 0.0821 nM
B8: HuC6D4 (format not stated) (antibody, V domains shown)
VH: B1 VH
VL: B1 VL

binding result [12]: no binding | binding result [13]: no binding | ED50 of the inhibition of αvβ8-mediated TGF-β activation (immobilized human αvβ8, TMLC GARP/L-TGF-β reporter cells) [7]: 0.84 µg/mL | ED50 of the inhibition of αvβ6-mediated TGF-β activation (immobilized human αvβ6, TMLC GARP/L-TGF-β reporter cells) [8]: 0.07 µg/mL | binding result [11]: no binding (tested: 2.5 µg/ml)
B11: H3C8 RGD3, human IgG4 (VL Fr4 K108/V109, human) (antibody, V domains shown)
VH: B6 VH with R31E
VL: B4 VL with M21L, S66T, V88L, V112K, L113V
notes: also called H3C8 RGD3 VL Fr4 K108/V109 (human) IgG4

Second part, the binder before the results:

B2: H3.C12, human IgG4 (antibody, V domains shown)
VH: B6 VH with R31E
VL: B1 VL with K24R, N31H, S34T, S62T, V84L
EC50 of inhibition of αvβ8-mediated TGF-β activation [1]: 0.25 µM | ED50 of the inhibition of αvβ8-mediated TGF-β activation (immobilized αvβ8, TMLC GARP/L-TGF-β reporter cells) [3]: 0.25 µg/mL

B3: HuC6D4F12 (format not stated) (antibody, V domains shown)
VH: B1 VH with D31K
VL: B1 VL with N31H
notes: also called HuF12; huF12
Kd [4]: 0.00236 nM | Kd [5]: 2.6 nM | Kd [6]: 6.4 nM

B9: H4C8 RGD3, human IgG4 (antibody, V domains shown)
VH: B6 VH
VL: B4 VL with M21L, S66T, V88L, V112K, L113V
notes: also called H4C8 RGD3 IgG4
ED50 of the inhibition of αvβ8-mediated TGF-β activation (immobilized human αvβ8, TMLC GARP/L-TGF-β reporter cells) [7]: 0.02 µg/mL | ED50 of the inhibition of αvβ6-mediated TGF-β activation (immobilized human αvβ6, TMLC GARP/L-TGF-β reporter cells) [8]: 0.03 µg/mL | binding result [11]: no binding (tested: 2.5 µg/ml) | binding result [9]: no binding | binding result [10]: no binding

B10: H4C8 RGD1, human IgG4 (antibody, V domains shown)
VH: B6 VH
VL: EIVMTQSPATLSVSPGERVTLSCKSSQSLLRRGDLATIHGNALAWYQQKPGQAPRLLIYWASTRETGVPARFSGSGSGTEFTLTISSLQSEDFAVYYCKQSYNLLSFGQGTKVEIKR
notes: also called H4C8 RGD1 IgG4
ED50 of the inhibition of αvβ8-mediated TGF-β activation (immobilized human αvβ8, TMLC GARP/L-TGF-β reporter cells) [7]: 0.07 µg/mL | ED50 of the inhibition of αvβ6-mediated TGF-β activation (immobilized human αvβ6, TMLC GARP/L-TGF-β reporter cells) [8]: 0.04 µg/mL | binding result [11]: no binding (tested: 2.5 µg/ml) | binding result [9]: no binding | binding result [10]: no binding
